US20080279856A1, “Inhibition of Bradykinin Release” (Novo Nordisk Pharmaceuticals, Inc., priority 1999, published 2008)

Legend:
HUVEC or BAEC monolayers = assay: EC intracellular free Ca2+ (fluo-3/AM, confocal microscopy); type: cell-based, human, bovine; settings: HBP 75 μg/ml
Method: The Ca^2+ sensitive fluorescent probe fluo-3/AM is used for determination of changes in EC intracellular free Ca^2+. Confluent HUVEC or BAEC monolayers cultured on Biomatrix I coated filters are incubated with a Fluo-3/AM solution (3 μM in HBSS containing 2% FCS and […] HEPES), added to both the apical and basolateral surface, for 30 min at 37° C. The monolayers are washed three times and incubated with fresh HBSS in the dark for 20 min at room temperature before use to allow complete hydrolysis of the dye ester to its calcium sensitive free acid form. EC are stimulated with HBP added to the apical surface. Changes in EC Ca^2+i in response to HBP stimulation are measured through continuous registration of fluorescence intensity with a laser-scanning confocal imaging system (Insight Plus; Meridian Instruments Inc., Okemon, Mich.).

[1] = 125I-BPTI binding to HBP, scintillation proximity assay; parameters: species or system bovine; settings: competition with unlabeled BPTI; read-out: apparent IC50 of 125I-BPTI binding
Method: (§1) The relative affinities of HBP and the mutants are determined by performing competition studies with […] of unlabeled BPTI.

125I-BPTI = assay: as above; parameters: species or system bovine
Method: as §1

rat insulinoma cells = settings: IL-1 induced; cited from earlier work
[2] = system: endothelial cells and fibroblasts; settings: cited from earlier work
fecal peritonitis = settings: HBP treatment; cited from earlier work
[3] = system: hamster cheek pouch microvasculature; assay: Intravital microscopy of hamster cheek pouch microvessel permeability; type: in vivo, Syrian golden hamsters; settings: topical HBP 75 μg/ml
Description: In order to study the effect of PMN secretion products on microvessel permeability in vivo, intravital microscopy of the hamster cheek pouch microcirculation is applied. As previously described in detail (Raud & Lindbom, 1994, Immunology of the Microcirculation, Academic Press, 1994, chapter 7), the left cheek pouch of anaesthetized Syrian golden hamsters is everted and prepared for microscopic observation under continuous superfusion with a bicarbonate buffer maintaining physiological levels of temperature, pH and gas tensions. FITC-conjugated dextran (MW: 150.000) injected i.v. (250 mg/kg body weight) is used as plasma tracer to permit visualization of changes in vascular permeability to macromolecules. The microvasculature in the exposed cheek pouch is observed under low magnification in fluorescent light with a Leitz Orthoplan microscope and recorded on video. After control recordings, superfusion is stopped and 1 ml of medium containing CD18 cross-linking-evoked PMN secretion at 37° C. is topically applied to the cheek pouch. In parallel experiments, anti-CD18-treated PMN medium is not subjected to cross-linking is used.

EC monolayers = assay: F-actin distribution in EC (FITC-phalloidin staining); type: cell-based, human, bovine; settings: HBP 75 μg/ml, 15 min
Method: For analysis of F-actin distribution in EC in response to stimulation with HBP, confluent EC monolayers grown on Biomatrix coated coverslips are incubated with HBP or vehicle alone at 37° C. for 15 min. The monolayers are washed twice in culture medium and fixed in 3.7% formaldehyde in PBS for 10 min at room temperature. EC are permeabilized with 0.2% Triton® X-100 in PBS (1 min at 4° C.), washed twice and stained for actin filaments with FITC-conjugated phalloidin for 20 min at 37° C. The endothelial cells are again washed three times in PBS and viewed in a laser scanning confocal microscope.

B1: HBP: Native human heparin-binding protein, mature form with the amino acid sequence SEQ ID NO:1 (protein, listed as Homo sapiens)
chain: IVGGRKARPRQFPFLASIQNQGRHFCGGALIHARFVMTAASCFQSQNPGVSTVVLGAYDLRRRERQSRQTFSISSMSENGYDPQQNLNDLMLLQLDREANLTSSVTILPLPLQNATVEAGTRCQVAGWGSQRSGGRLSRFPRFVNVTVTPEDQCRPNNVCTGVLTRRGGICNGDGGTPLVCEGLAHGVASFSLGPCGRGPDFFTRVALFRDWIDGVLNNPGPGPA
change in EC cytosolic Ca2+ (fluo-3 fluorescence intensity) (HUVEC or BAEC monolayers): rapid increase in fluorescence intensity | time to peak of Ca2+ fluorescence (HUVEC or BAEC monolayers): ≤ 1 min | IC50 [1]: ~7 nM | binding of BPTI (125I-BPTI): binds BPTI | apoptosis (rat insulinoma cells): rescues rat insulinoma cells from IL-1 induced apoptosis | cell contraction [2]: induce contraction | survival (fecal peritonitis): rescue mice from an otherwise lethal injury | time of maximum leakage response after challenge [3]: 7 to 10 min | time to complete disappearance of leakage [3]: ≤ 30 min | time to visible leaky spots of fluorescent tracer [3]: ≤ 2 min | F-actin content and distribution (EC monolayers): substantial changes in F-actin content and distribution
